Assay results: paper PMC4227792 (Nucleic Acids Research, 2014)
Numbering of substitutions follows the chain as printed. Blank lines part the entries; values can stand above or below the binder they belong to.

Key:
[1] = target: T1, His6-Rrp42 of Sulfolobus solfataricus (Sulfolobus solfataricus, UniProt Q9UXC0 1-275); test: pull-down; subunits of the reconstituted Strep-Csl4 exosome (purified His6-Rrp41, His6-Rrp42 and Strep-tagged Csl4 mixed in buffer P0) recovered on Strep-Tactin Sepharose through Strep-Csl4, E. coli cell-free extract with DnaG-K6AY7A present; eluted with D-desthiobiotin; silver-stained SDS-PAGE; settings: both partners purified
T1 sequence (looked up): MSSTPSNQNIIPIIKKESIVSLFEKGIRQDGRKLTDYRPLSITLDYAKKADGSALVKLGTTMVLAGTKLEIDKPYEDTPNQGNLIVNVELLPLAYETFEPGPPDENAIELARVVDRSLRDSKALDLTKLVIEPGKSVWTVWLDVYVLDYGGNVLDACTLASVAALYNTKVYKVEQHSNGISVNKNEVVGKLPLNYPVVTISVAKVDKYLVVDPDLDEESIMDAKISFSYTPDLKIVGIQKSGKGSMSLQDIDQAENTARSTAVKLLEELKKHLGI

[2] = target: T2, His6-Rrp41 of Sulfolobus solfataricus (Sulfolobus solfataricus, UniProt Q9UXC2 1-248); test: as above; settings: both partners purified
T2 sequence (looked up): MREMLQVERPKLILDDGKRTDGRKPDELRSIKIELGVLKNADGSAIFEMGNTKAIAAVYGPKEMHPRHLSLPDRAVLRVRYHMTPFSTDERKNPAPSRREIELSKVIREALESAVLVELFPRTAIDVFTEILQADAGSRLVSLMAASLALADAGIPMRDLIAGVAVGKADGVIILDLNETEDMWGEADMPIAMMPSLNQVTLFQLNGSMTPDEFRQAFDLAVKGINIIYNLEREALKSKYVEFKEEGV

DnaG [3] = target: T3, DnaG (Saccharolobus (Sulfolobus) solfataricus, UniProt P95980 1-406); test: EMSA; 25 fmol DNA, 2.5 pmol protein; 20 mM HEPES pH 7.9, 60 mM KCl, 10 mM MgCl2, 10% glycerol, 2 mM DTT, 0.1 mM EDTA; room temperature 5 min, 10 ul; 5% native PAA gel at 4 C
T3 sequence: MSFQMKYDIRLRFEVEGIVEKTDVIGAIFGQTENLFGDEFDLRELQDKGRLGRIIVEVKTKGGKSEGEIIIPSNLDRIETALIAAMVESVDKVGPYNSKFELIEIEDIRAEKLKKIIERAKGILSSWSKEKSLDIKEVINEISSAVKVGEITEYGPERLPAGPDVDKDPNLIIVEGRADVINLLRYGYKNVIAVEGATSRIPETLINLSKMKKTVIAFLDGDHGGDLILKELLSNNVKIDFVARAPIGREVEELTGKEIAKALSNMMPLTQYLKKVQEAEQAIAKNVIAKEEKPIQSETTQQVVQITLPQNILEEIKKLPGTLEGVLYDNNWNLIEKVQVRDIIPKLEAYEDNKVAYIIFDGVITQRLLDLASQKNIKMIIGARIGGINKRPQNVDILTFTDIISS

DnaG-K6AY7A = target: T4, DnaG-K6AY7A (Saccharolobus (Sulfolobus) solfataricus, UniProt P95980 1-406, K6A;Y7A); test: EMSA; 25 fmol RNA, 2.5 pmol protein; 20 mM HEPES pH 7.9, 60 mM KCl, 10 mM MgCl2, 10% glycerol, 2 mM DTT, 0.1 mM EDTA; room temperature 5 min, 10 ul; 5% native PAA gel at 4 C
T4 sequence: T3 sequence with K6A, Y7A

DnaG [4] = target: T3, DnaG; test: as above
Csl4 = target: T5, Csl4 (Saccharolobus (Sulfolobus) solfataricus, UniProt Q980J9 1-189); test: EMSA; 25 fmol RNA; 20 mM HEPES pH 7.9, 60 mM KCl, 10 mM MgCl2, 10% glycerol, 2 mM DTT, 0.1 mM EDTA; room temperature 5 min, 10 ul; 5% native PAA gel at 4 C
T5 sequence: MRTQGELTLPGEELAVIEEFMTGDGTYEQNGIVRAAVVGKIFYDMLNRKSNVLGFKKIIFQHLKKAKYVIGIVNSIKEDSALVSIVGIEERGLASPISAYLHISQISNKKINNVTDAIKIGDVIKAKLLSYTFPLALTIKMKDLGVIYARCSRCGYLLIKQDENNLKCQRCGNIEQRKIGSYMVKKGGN

Csl4-NT = target: T6, Csl4-NT (Saccharolobus (Sulfolobus) solfataricus, UniProt Q980J9 1-189+=V+P95980:2-156, internal_change); test: as above
T6 sequence: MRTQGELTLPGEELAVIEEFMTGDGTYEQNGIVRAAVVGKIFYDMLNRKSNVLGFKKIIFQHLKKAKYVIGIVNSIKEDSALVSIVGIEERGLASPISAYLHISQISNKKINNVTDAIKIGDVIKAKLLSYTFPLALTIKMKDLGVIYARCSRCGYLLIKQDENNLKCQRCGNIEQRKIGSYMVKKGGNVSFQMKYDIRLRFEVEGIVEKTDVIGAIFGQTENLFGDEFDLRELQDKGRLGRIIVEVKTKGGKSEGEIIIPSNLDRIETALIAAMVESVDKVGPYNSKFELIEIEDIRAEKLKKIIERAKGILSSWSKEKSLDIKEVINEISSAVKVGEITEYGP

- binding result [1]: binds
- binding result [2]: binds
B1: Strep-tagged Csl4 of Sulfolobus solfataricus (natural protein, UniProt Q980J9 1-189, looked up)
chain: T5 sequence

Binder: AAAAAAAAAAAAAAAAAAAAAAAAAAAAAA (ssDNA) [poly(dA)30]
- binding result (DnaG [3]): no binding

Binder: AAAAAAAAAAAAAAAAAAAAAAAAAAAAAA (ssRNA) [poly(rA)30]
- binding result (DnaG-K6AY7A): no binding
- binding result (DnaG [4]): binds
- binding result (Csl4): no binding
- binding result (Csl4-NT): binds
